According to US8722052B2, “Vaccinia virus protein A46 peptide and use thereof” (priority 2008, dated 2014):
“Also recorded” adds a separate entry of the source. Square brackets hold non-standard residues; d marks the D form. Ends that are not written are not given here.

Biological target: T1, TLR4 (Mus musculus, UniProt Q9QUK6)
T1 sequence (Q9QUK6 26-835): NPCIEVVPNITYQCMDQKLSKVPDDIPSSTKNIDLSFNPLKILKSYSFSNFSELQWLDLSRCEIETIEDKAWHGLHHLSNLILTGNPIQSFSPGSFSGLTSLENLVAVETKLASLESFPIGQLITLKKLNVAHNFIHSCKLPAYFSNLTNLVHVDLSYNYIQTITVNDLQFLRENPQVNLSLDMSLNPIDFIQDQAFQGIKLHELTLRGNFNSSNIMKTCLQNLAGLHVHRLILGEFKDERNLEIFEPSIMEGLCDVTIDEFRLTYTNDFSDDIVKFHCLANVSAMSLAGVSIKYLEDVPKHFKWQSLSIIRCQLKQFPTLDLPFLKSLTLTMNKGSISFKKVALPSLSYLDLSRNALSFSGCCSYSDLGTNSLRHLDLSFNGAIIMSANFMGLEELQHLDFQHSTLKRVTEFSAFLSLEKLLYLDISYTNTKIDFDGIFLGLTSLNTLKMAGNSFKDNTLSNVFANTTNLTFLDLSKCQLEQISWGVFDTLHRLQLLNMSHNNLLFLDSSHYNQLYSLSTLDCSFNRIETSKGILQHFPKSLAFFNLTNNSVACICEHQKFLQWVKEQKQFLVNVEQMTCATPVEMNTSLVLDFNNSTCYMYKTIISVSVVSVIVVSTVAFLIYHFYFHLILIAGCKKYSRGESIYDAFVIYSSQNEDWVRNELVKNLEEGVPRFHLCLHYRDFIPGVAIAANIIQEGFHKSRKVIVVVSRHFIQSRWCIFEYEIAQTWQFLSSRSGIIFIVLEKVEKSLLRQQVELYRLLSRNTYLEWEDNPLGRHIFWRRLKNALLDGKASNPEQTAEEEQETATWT
T1 sequence (Q9JHF9 19-160 partner): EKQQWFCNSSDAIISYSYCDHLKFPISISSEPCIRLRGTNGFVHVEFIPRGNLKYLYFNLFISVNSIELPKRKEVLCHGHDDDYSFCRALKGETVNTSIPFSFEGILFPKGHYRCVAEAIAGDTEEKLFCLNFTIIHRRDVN
Assay: LPS-induced TNFα in immortalised murine macrophages, ELISA
Assay type: cell-based
Set-up: endogenous in cells; immortalised murine bone-marrow-derived macrophages
Settings: peptide 1, 5 or 25 μM 1 h before 10 ng/ml LPS, 6 h
Description: FIGS. 14A and B are bar charts showing the comparison of the inhibitory effect of the L- and D-forms of A464 on LPS-induced TNFα in primary human and murine cells. PBMC (1×10^6 cells/ml, (A)) or immortalised murine macrophages (1.5×10^5 cells/ml, (B)) were seeded in 96 well plates 24 hours before treatment. L-form and D-form A464 peptides (with the 9R delivery peptide on the C-terminus, SEQ ID NO. 20) were added to the cells at a concentration of 1, 5 or 25 μM 1 hour before stimulating with 10 ng/ml LPS. Supernatants were collected 6 hours after stimulation and assayed for either human (A) or murine (B) TNFα production by ELISA. No peptides were added to the control wells (black bars). Data is representative of at least three experiments each performed in triplicate and is expressed as mean±s.d;
FIGS. 15A and B are bar charts showing the effect of the D-form A464 peptide with the TAT delivery sequence on LPS induced TNFα in primary human and murine cells. PBMC (A) and immortalised murine macrophages (B) were seeded in 96 well plates 24 hours before treatment. D-form of A467 (SEQ ID NO. 37) and A464 (SEQ ID NO. 36) with the TAT delivery sequence were added to the cells at a concentration of 1, 5 or 25 μM 1 hour before stimulating with 10 ng/ml LPS. The peptides were added into the unstimulated control wells at 25 μM. Supernatants were collected 6 hours after stimulation and assayed for either human (A) or murine (B) TNFα production by ELISA. No peptides were added to the control wells (black bars). Data is representative of at least three experiments each performed in triplicate and is expressed as mean±s.d;
FIGS. 16A and B are bar charts showing the effect of attaching 9R to the N-terminus of A464 on LPS-induced TNFα in primary human and murine cells. Immortalised murine macrophages (A) and PBMC (B) were seeded in 96 well plates 24 hours before treatment. L-form of A467 (SEQ ID NO. 39) and A464 (SEQ ID NO. 38) with the 9R-delivery sequence at the N-terminus were added to the cells at a concentration of 1, 5 or 25 μM 1 hour before stimulating with 10 ng/ml LPS. The peptides were added into the unstimulated control wells at […]. Supernatants were collected 6 hours after stimulation and assayed for either murine (A) or human (B) TNFα production by ELISA. No peptides were added to the control wells (black bars). Data is representative of at least three experiments each performed in triplicate and is expressed as mean±s.d;
FIGS. 17A and B are bar charts showing the effect of the D-form A464 with 9R at the N-terminus on LPS-induced TNFα in primary human and murine cells. Immortalised murine macrophages (A) and PBMC (B) were seeded in 96 well plates 24 hours before treatment. D-form of A467 (SEQ ID NO. 39) and A464 (SEQ ID NO. 38) peptides with the 9R-delivery sequence at N-terminus were added to the cells at a concentration of 1, 5 or 25 μM 1 hour before stimulating with 10 ng/ml LPS. The peptides were added into the unstimulated control wells at 25 μM. Supernatants were collected 6 hours after stimulation and assayed for either murine (A) or human (B) TNFα production by ELISA. No peptides were added to the control wells (black bars). Data is representative of at least three experiments each performed in triplicate and is expressed as mean±s.d;
FIGS. 18A and B are bar charts showing the effect of shortened A464 peptides with deletions of N- and C-terminal amino acids on LPS-induced TNFα in murine macrophages. Immortalised murine macrophages were seeded in 96 well plates (1.5×10^5 cells/ml) 24 hours before treatment. A464 peptides with a deletion of one (N-1) (SEQ ID NO. 40) or two (N-2) (SEQ ID NO. 41) amino acids from the N-terminus (A), or three (C-3) (SEQ ID NO. 42) or six (C-6) (SEQ ID NO. 43) amino acids from the C-terminus (B), were added to the cells at a concentration of 1, 5 or 25 μM 1 hour before stimulating with 10 ng/ml LPS. Peptides were added to the control wells at 25 μM. […]

Substance	inhibition of LPS-induced mTNFα production
9RN-A464 (RRRRRRRRRKYSFKLILAEY) [Peptide 9RN-A464]	complete inhibition was observed at 1 μM
D-9RN-A464 ([dR][dR][dR][dR][dR][dR][dR][dR][dR][dK][dY][dS][dF][dK][dL][dI][dL][dA][dE][dY]) [Peptide D-9RN-A464]	no inhibition at 1 μM
KYSFKLILAEYRRRRRRRRR [Peptide A464]	significant inhibition of TLR4 by A464 (SEQ ID No. 20) at 1 μM; also recorded: complete inhibition at 1
